Results reported in patent publication EP1644414B1.

What was measured:
[1] = molecular target: UV-inactivated SARS-CoV preparation (Frankfurt 1 strain) (SARS-CoV strain Frankfurt 1); experiment: phage ELISA, plate 2 (no phage 0.211)
[2] = molecular target: UV-inactivated SARS-CoV preparation (Frankfurt 1 strain) (SARS-CoV strain Frankfurt 1); experiment: phage ELISA, plate 4 (no phage 0.051)
[3] = molecular target: UV-inactivated SARS-CoV preparation (Frankfurt 1 strain) (SARS-CoV strain Frankfurt 1); experiment: phage ELISA, plate 3 (no phage 0.054)

B1: SC03-020 (scFv)
scFv: AMAEVQLVQSGSEVKKPGESLKISCKGSGYGFITYWIGWVRQMPGKGLEWMGIIYPGDSETRYSPSFQGQVTISADKSINTAYLQWSSLKASDTAIYYCAGGSGISTPMDVWGQGTTVTVSSGTGGSGGTGSGTGGSTDIQMTQSPDSLAVSLGERATINCKSSQKILHSSNNKNYLAWYQQKPGQPPKLLIYWASTRESGVPDRFSGSGSGTDFTLTISSLQAEDVAVYYCQQYYSTPPVFGGGTKVEIKRAA
In the case of B1, the OD492nm [1] is reported as 0.671 OD492nm.

B2: SC03-021 (scFv)
scFv: AMAQVQLVQSGTEVKKPGESLKISCKGSGYGFITYWIGWVRQMPGKGLEWMGIIYPGDSETRYSPSFQGQVTISADKSINTAYLQWSSLKASDTAIYYCAGGSGISTPMDVWGQGTTVTVSSGTGGSGGTGSGTGGSTDVVMTQSPDSLAVSLGERATINCKSSQSVLHSSNNKNYLAWYQQKPGQPPKLLIYWASTRQSGVPDRFSGSGSGTDFTLTISSLQAEDVAVYYCQQYYSTPPTFGQGTKVEIKRAA
With B2 the OD492nm [1] was 0.215 OD492nm.

B3: SC03-023 (scFv)
scFv: AMAQVQLQQWGAGLLKPSETLSLTCAVYGGSFSGFYWSWIRQPPGKGLEWIGEINHSGSTNYNPSLKSRVTISVDTSKNQFSLKLSSVTAADTAVYYCARRVEVVEYQLLRPRYKSWFDPWGQGTLVTVSSGTGGSGGTGSGTGGSTQSALTQPRSVSGSPGQSVTISCTGSSSTVGGYNYVSWYQQHPGKAPKLMIYDVSKRPSGVSNRFSGSKSGNTASLTISGLQAEDEADYYCSSYTSSSTYVFGTGTKVTVLGAA
B3 gave an OD492nm [1] of 1.31 OD492nm.

B4: SC03-024 (scFv)
scFv: AMAQVQLVESGSELKIPGASVKVSCKATGYTFTRYSLNWVRQAPGQGLEWVGWINTQTGNSNYGQAFSGRFVFSLDTSVSTAYLQISSLQAEDTATYYCARKSAGSNAFDIWGQGTMVTVSSGTGGSGGTGSGTGGSTQSVVTQPPSVSAAPGQKATISCSGSSSNIGNNYVSWYQQLPGTAPKLLIYDNNKRPSGIPNRFSGSKSGTSATLGITGLQTGDEADYYCGTWDSSLSAYVFGTGTKVTVLGAA
Work on B4 yielded an OD492nm [1] of 0.235 OD492nm.

B5: SC03-025 (scFv)
scFv: AMAEVQLVESGGGLVQPGGSLRLSCAASGFTFSSYAMHWVRQAPGKGLEYVSGISSNGGSTYYANSVKGRFTISRDNSKNTLYLQMGSLRAEDMAVYYCARTTNRAFDIWGQGTMVTVSSGTGGSGGTGSGTGGSTDIQLTQSPDSLAVSLGERATINCKSSQSVLYSSNNKNYLAWYQQKPGQPPKLLIYWASIRESGVPDRFSGSGSGTDFTLTISSLQAEDVAVYYCQQYYNIPYAFGQGTKLEIKRAA
Binder B5 has an OD492nm [1] of 1.64 OD492nm.

B6: SC03-031 (scFv)
scFv: AMAQVQLVQSGADVKKPGSSVKVSCEASGGTFSSYAISWVRQAPGQGLEWMGRIIPILGITNYAQKFQGRVTITADKSTGTGNMELSSLRSEDTAVYYCARESGGGYDNHFDYWGQGTLVTVSSGTGGSGGTGSGTGGSTQSVLTQPPSASGTPGQRVTISCSGGSSNIGSNTVNWYQQLPGTAPKLVIYANNQRPSGVPDRFSASKSGTSASLAISGLQSEDEADYYCAAWDDSLTGGVFGGGTQLTVLSAA
B6 was tested, and the OD492nm [2] was 0.635 OD492nm.

B7: SC03-033 (scFv)
scFv: AMAQVQLVQSGTEVKKPGESLKISCKGSGYGFITYWIGWVRQMPGKGLEWMGIIYPGDSETRYSPSFQGQVTISADKSINTAYLQWSSLKASDTAIYYCAGGSGISTPMDVWGQGTTVTVSSGTGGSGGTGSGTGGSTDVVMTQSPDSLAVSLGERATINCKTSHNIFSRSNNKDYLAWYQQKPGQPPRLLIYWASTRASGVPERFSGSGSGTDFSLTISSLQAEDVAVYYCQQYYSSPMYSFGQGTKVEIKRAA
With B7 the OD492nm [2] was 0.288 OD492nm.

B8: SC03-034 (scFv)
scFv: AMAEVQLVQSGAEVKKPGESLKISCKGSGYGFITYWIGWVRQMPGKGLEWMGIIYPGDSETRYSPSFQGQVTISADKSINTAYLQWSSLKASDTAIYYCAGGSGISTPMDVWGQGTTVTVSSGTGGSGGTGSGTGGSTDVVMTQSPDSLAVSLGERATINCKSSQSILNRSNNKNYLAWYQQKPGQPPKLLIYWASTRESGVPDRFSGSGSGTDFNLTISSLQAEDVAVYYCQQYNNWPLTFGGGTKVDIKRAA
With B8 the OD492nm [3] was 0.802 OD492nm.

B9: SC03-036 (scFv)
scFv: AMAEVQLVQSGTEVKKPGESLKISCKGSGYGFITYWIGWVRQMPGKGLEWMGIIYPGDSETRYSPSFQGQVTISADKSINTAYLQWSSLKASDTAIYYCAGGSGISTPMDVWGQGTTVTVSSGTGGSGGTGSGTGGSTDIQMTQSPDSLAVSLGERATINCKSSQSVLHSPNNKNYLAWYQQKPGQPPKLLIYWASTRESGVPDRFSGSGSGTDFTLTISSLQAEDVAVYYCQQYYSTNSFGQGTKLEIKRAA
B9 gave an OD492nm [3] of 0.24 OD492nm.

B10: SC03-037 (scFv)
scFv: AMAKVQLVQSGGGLIQPGGSLRLSCAASGFTVSSNYMSWVRQAPGKGLEWVSIVFSGGSTYYADSVKGRFTISRDNSKNTLYLQMNSLRAEDTAVYYCARDAHRGFGMDVWGQGTTVTVSSGTGGSGGTGSGTGGSTSSELTQDPAVSVALGQTVRITCQGDSLRSYYASWYQQKPGQAPVLVIYGKNNRPSGIPDRFSGSSSGNTASLTITGAQAEDEADYYCNGRDSSGNHWVFGGGTKLTVLGAA
B10 showed an OD492nm [2] of 0.287 OD492nm.

B11: SC03-038 (scFv)
scFv: AMAEVQLVQSGGGLIQPGGSLRLSCAASGFTVSSNYMSWVRQAPGKGLEWVSIVFSGGSTYYADSVKGRFTISRDNSKNTLYLQMNSLRAEDTAVYYCARDAHRGFGMDVWGQGTTVTVSSGTGGSGGTGSGTGGSTSSELTQDPAVSVALGQTVRITCQGDSLRSYYASWYQQKPGQAPVLVIYGKNNRPSGIPDRFSGSSSGDTASLTITGAQAEDEADYYCNSRDSSGNHWVFGGGTKLTVLGAA
For B11, the OD492nm [2] was 0.314 OD492nm.

B12: SC03-039 (scFv)
scFv: AMAEVQLVESGGGLVQPGGSLRLSCAASGFTFSSYAMSWVRQAPGKGLEWVSVIYSGGTSTYYADSVKGRFTISRDNSKNTLYLQMNSLRAEDTAVYFCAKGSKWNDVGGGDYWGQGTLVTVSSGTGGSGGTGSGTGGSTNFMLTQPHSVSESPGKTVTISCAGSSGSIASNYVQWYQQRPGSAPTTVIYEDNQRPSGVPDRFSGSIDSSSNSASLTISGLKTEDEADYYCQSYDGYLWIFGGGTKLTVLGAA
For B12, the OD492nm [3] was 0.851 OD492nm.

B13: SC03-040 (scFv)
scFv: AMAQVQLVQSGGGLVQPGGSLRLSCAASGFTFSSYAMHWVRQAPGKGLEYVSGISSNGGSTYYANSVKGRFTISRDNSKNTLYLQMGSLRAEDMAVYYCARTTNRAFDIWGQGTMVTVSSGTGGSGGTGSGTGGSTDIQMTQSPDSLAVSLGERATINCRSSQSVLYSSNNKNYLAWYQQKPGQPPKLLIYWASTRESGVPDRFSGSGSGTDFTLTISSLQAEDVAVYYCQQYYSSPYSFGQGTKLEIKRAA
Binder B13 has an OD492nm [2] of 0.616 OD492nm.

B14: SC03-043 (scFv)
scFv: AMAQVQLVQSGGGLVQPGGSLRLSCAASGFTFSSYAMHWVRQAPGKGLEYVSGISSNGGSTYYANSVKGRFTISRDNSKNTLYLQMGSLRAEDMAVYYCARTTNRAFDIWGQGTMVTVSSGTGGSGGTGSGTGGSTDIQLTQSPDSLAVSLGERATINCKSSQSVLYRSNNKNYLAWYQQKPGQPPKLLIYWASTRESGVSERFSGSGSGTDFTLTISSLQAEDVAVYYCQQYYSTPYSFGQGTKLEIKRAA
B14 was tested, and the OD492nm [3] was 1.27 OD492nm.

B15: SC03-044 (scFv)
scFv: AMAEVQLVETGGGLVQPGGSLRLSCAASGFTFSSYAMHWVRQAPGKGLEYVSGISSNGGSTYYANSVKGRFTISRDNSKNTLYLQMGSLRAEDMAVYYCARTTNRAFDIWGQGTMVTVSSGTGGSGGTGSGTGGSTDIQMTQSPDSLAVSLGERATINCKSSQSVLYSSNNKNYLAWYQQKPGQPPKLLIYWASTRESGVPDRFRGSGSGTDFTLTISSLQAEDLAVYYCQQYYSTPYSFGQGTKLEIKRAA
B15 was tested, and the OD492nm [2] was 0.518 OD492nm.

B16: SC03-046 (scFv)
scFv: AMAEVQLVQSGGGLVQPGGSLRLSCAASGFTFSSYAMHWVRQAPGKGLEYVSGISSNGGSTYYANSVKGRFTISRDNSKNTLYLQMGSLRAEDMAVYYCARTTNRAFDIWGQGTMVTVSSGTGGSGGTGSGTGGSTDVVMTQSPDSLAVSLGERATINCKSSQSVLYSSNNKNYLAWYQQKPGQPPKLLIYWASTRESGVPDRFSGSGSGTDFSLTISSLQAEDVAVYYCQQYYSPPYTFGPGTKVEIKRAA
For B16, the OD492nm [3] was 1.9 OD492nm.

B17: SC03-051 (scFv)
scFv: AMAQVQLVQSGTEVKKPGESLKISCKGSGYGFITYWIGWVRQMPGKGLEWMGIIYPGDSETRYSPSFQGQVTISADKSINTAYLQWSSLKASDTAIYYCAGGSGISTPMDVWGQGTTVTVSSGTGGSGGTGSGTGGSTDIQMTQSPDSLAVSLGERATINCKSGQSILYSSNDKNYLAWYQQKPGQPPKLLIYWASTRESGVPDRFSGSGSGTDFTLTISSLQAEDVAVYYCQQYYSTPYTFGQGTKVEIKRAA
B17 was tested, and the OD492nm [3] was 0.602 OD492nm.

B18: SC03-054 (scFv)
scFv: AMAEVQLVQSGGGVVQPGRSLRLSCAASGFTFSSYAMHWVRQAPGKGLEYVSGISSNGGSTYYANSVKGRFTISRDNSKNTLYLQMGSLRAEDMAVYYCARTTNRAFDIWGQGTMVTVSSGTGGSGGTGSGTGGSTDIQLTQSPDSLAVSLGERATINCKSSQSVLYSSNNKNYLAWYQQKPGQPPKLLIYWASTRESGVPDRFSGGGSGTDFTLTISSLQAEDVAVYYCQQYYSTPYSFGQGTKVEIKRAA
In the case of B18, the OD492nm [2] is reported as 0.428 OD492nm.

B19: SC03-055 (scFv)
scFv: AMAQVQLQQWGAGLLKPSETLSLTCAVYGGSFSGFYWSWIRQPPGKGLEWIGEINHSGSTNYNPSLKSRVTISADTSKNQFSLKLSSVTAADTAVYYCARRVEVVEYQLLRPRYKSWFDPWGQGTLVTVSSGTGGSGGTGSGTGGSTQSVLTQPPSVSGAPGQRVSISCSGSGANGGTDPVSWYQKFPGTAPHLLIYDNNKRPSGIPDRFSGSKSGASATLDITGLQTGDEADYYCGAWDPSLSGYVFGTGTQLTVLSAA
Work on B19 yielded an OD492nm [3] of 0.608 OD492nm.

B20: SC03-057 (scFv)
scFv: AMAQVQLVQSGAEVKKPGSSVKVSCKASGGTFSRYAISWVRQAPGQGLEWMGRINPILNLTNYAQKFQGRVTITADKSTSTAYMEMSSLRSEDTAIYYCASPDIVVAGHASPPHYTMDVWGQGTTVTVSSGTGGSGGTGSGTGGSTDIQMTQSPSSLSASVGDRVTITCRASQGIRNDLGWYQQKPGKAPNLLIYQASALQSGVPSRFSGSESGAEFTLTISSLHPDDFATYYCQQYHDFPITFGQGTRLEIKRAA
Binder B20 has an OD492nm [3] of 1.19 OD492nm.
